Assay results taken from patent US20250312475A1.
Where two headings read alike, the source gives them in different places.

B1: Binding Protein 2 (protein)
light 1: DFVLTQSPHSLSVTPGESASISCKSSHSLIHGDRNNYLAWYVQKPGRSPQLLIYLASSRASGVPDRFSGSGSDKDFTLKISRVETEDVGTYYCMQGRESPWTFGQGTKVDIKDKTHTASELTQDPAVSVALKQTVTITCRGDSLRSHYASWYQKKPGQAPVLLFYGKNNRPSGIPDRFSGSASGNRASLTITGAQAEDEADYYCSSRDKSGSRLSVFGGGTKLTVLDKTHTRTVAAPSVFIFPPSDEQLKSGTASVVCLLNNFYPREAKVQWKVDNALQSGNSQESVTEQDSKDSTYSLSSTLTLSKADYEKHKVYACEVTHQGLSSPVTKSFNRGEC
heavy 1: EVRLVESGGGLVKPGGSLRLSCSASGFDFDNAWMTWVRQPPGKGLEWVGRITGPGEGWSVDYAESVKGRFTISRDNTKNTLYLEMNNVRTEDTGYYFCARTGKYYDFWSGYPPGEEYFQDWGQGTLVIVSSDKTHTQVHLTQSGPEVRKPGTSVKVSCKAPGNTLKTYDLHWVRSVPGQGLQWMGWISHEGDKKVIVERFKAKVTIDWDRSTNTAYLQLSGLTSGDTAVYYCAKGSKHRLRDYALYDDDGALNWAVDVDYLSNLEFWGQGTAVTVSSDKTHTASTKGPSVFPLAPSSKSTSGGTAALGCLVKDYFPEPVTVSWNSGALTSGVHTFPAVLQSSGLYSLSSVVTVPSSSLGTQTYICNVNHKPSNTKVDKKVEPKSCDKTHTCPPCPAPELLGGPSVFLFPPKPKDTLMISRTPEVTCVVVDVSHEDPEVKFNWYVDGVEVHNAKTKPREEQYNSTYRVVSVLTVLHQDWLNGKEYKCKVSNKALPAPIEKTISKAKGQPREPQVYTLPPCRDELTKNQVSLWCLVKGFYPSDIAVEWESNGQPENNYKTTPPVLDSDGSFFLYSKLTVDKSRWQQGNVFSCSVLHEALHSHYTQKSLSLSPG
heavy 2: RAHLVQSGTAMKKPGASVRVSCQTSGYTFTAHILFWFRQAPGRGLEWVGWIKPQYGAVNFGGGFRDRVTLTRDVYREIAYMDIRGLKPDDTAVYYCARDRSYGDSSWALDAWGQGTTVVVSAASTKGPSVFPLAPSSKSTSGGTAALGCLVKDYFPEPVTVSWNSGALTSGVHTFPAVLQSSGLYSLSSVVTVPSSSLGTQTYICNVNHKPSNTKVDKKVEPKSCDKTHTCPPCPAPELLGGPSVFLFPPKPKDTLMISRTPEVTCVVVDVSHEDPEVKFNWYVDGVEVHNAKTKPREEQYNSTYRVVSVLTVLHQDWLNGKEYKCKVSNKALPAPIEKTISKAKGQPREPQVCTLPPSRDELTKNQVSLSCAVKGFYPSDIAVEWESNGQPENNYKTTPPVLDSDGSFFLVSKLTVDKSRWQQGNVFSCSVLHEALHSHYTQKSLSLSPG
light 2: YIHVTQSPSSLSVSIGDRVTINCQTSQGVGSDLHWYQHKPGRAPKLLIHHTSSVEDGVPSRFSGSGFHTSFNLTISDLQADDIATYYCQVLQFFGRGSRLHIKRTVAAPSVFIFPPSDEQLKSGTASVVCLLNNFYPREAKVQWKVDNALQSGNSQESVTEQDSKDSTYSLSSTLTLSKADYEKHKVYACEVTHQGLSSPVTKSFNRGEC
B2: Binding Protein 3 (protein)
light 1: ASELTQDPAVSVALKQTVTITCRGDSLRSHYASWYQKKPGQAPVLLFYGKNNRPSGIPDRFSGSASGNRASLTITGAQAEDEADYYCSSRDKSGSRLSVFGGGTKLTVLDKTHTDFVLTQSPHSLSVTPGESASISCKSSHSLIHGDRNNYLAWYVQKPGRSPQLLIYLASSRASGVPDRFSGSGSDKDFTLKISRVETEDVGTYYCMQGRESPWTFGQGTKVDIKDKTHTRTVAAPSVFIFPPSDEQLKSGTASVVCLLNNFYPREAKVQWKVDNALQSGNSQESVTEQDSKDSTYSLSSTLTLSKADYEKHKVYACEVTHQGLSSPVTKSFNRGEC
heavy 1: QVHLTQSGPEVRKPGTSVKVSCKAPGNTLKTYDLHWVRSVPGQGLQWMGWISHEGDKKVIVERFKAKVTIDWDRSTNTAYLQLSGLTSGDTAVYYCAKGSKHRLRDYALYDDDGALNWAVDVDYLSNLEFWGQGTAVTVSSDKTHTEVRLVESGGGLVKPGGSLRLSCSASGFDFDNAWMTWVRQPPGKGLEWVGRITGPGEGWSVDYAESVKGRFTISRDNTKNTLYLEMNNVRTEDTGYYFCARTGKYYDFWSGYPPGEEYFQDWGQGTLVIVSSDKTHTASTKGPSVFPLAPSSKSTSGGTAALGCLVKDYFPEPVTVSWNSGALTSGVHTFPAVLQSSGLYSLSSVVTVPSSSLGTQTYICNVNHKPSNTKVDKKVEPKSCDKTHTCPPCPAPELLGGPSVFLFPPKPKDTLMISRTPEVTCVVVDVSHEDPEVKFNWYVDGVEVHNAKTKPREEQYNSTYRVVSVLTVLHQDWLNGKEYKCKVSNKALPAPIEKTISKAKGQPREPQVYTLPPCRDELTKNQVSLWCLVKGFYPSDIAVEWESNGQPENNYKTTPPVLDSDGSFFLYSKLTVDKSRWQQGNVFSCSVLHEALHSHYTQKSLSLSPG
heavy 2: B1 heavy 2
light 2: B1 light 2
B3: V1/V2 directed Ab “a” (antibody, V domains shown)
VH: QVHLTQSGPEVRKPGTSVKVSCKAPGNTLKTYDLHWVRSVPGQGLQWMGWISHEGDKKVIVERFKAKVTIDWDRSTNTAYLQLSGLTSGDTAVYYCAKGSKHRLRDYALYDDDGALNWAVDVDYLSNLEFWGQGTAVTVSS
VL: DFVLTQSPHSLSVTPGESASISCKSSHSLIHGDRNNYLAWYVQKPGRSPQLLIYLASSRASGVPDRFSGSGSDKDFTLKISRVETEDVGTYYCMQGRESPWTFGQGTKVDIK
B4: V1/V2 directed Ab “b” (antibody, V domains shown)
VH: QVQLVESGGGVVQPGTSLRLSCAASQFRFDGYGMHWVRQAPGKGLEWVASISHDGIKKYHAEKVWGRFTISRDNSKNTLYLQMNSLRPEDTALYYCAKDLREDECEEWWSDYYDFGKQLPCAKSRGGLVGIADNWGQGTMVTVSS
VL: QSVLTQPPSVSAAPGQKVTISCSGNTSNIGNNFVSWYQQRPGRAPQLLIYETDKRPSGIPDRFSASKSGTSGTLAITGLQTGDEADYYCATWAASLSSARVFGTGTKVIVL

Columns and labels:
[1] = target: HIV-1 Env of 20 pseudotyped viruses representing 10 different HIV-1 clades; test: cell-based or functional assay
[2] = target: HIV-1 Env of 20 pseudotyped viruses representing 10 different HIV-1 clades; test: cell-based or functional assay; remark: listed apart in the source

Binder | % VS Neutralized: IC80 < 1 µg/mL (of 20 viruses) [1] | % VS Neutralized: IC80 < 50 µg/mL (of 20 viruses) [1] | Geometric Mean (IC80) [1] | Median IC80 [1] | Total VS Neutralized: IC80 < 1 µg/mL (of 20 viruses) [1] | Total VS Neutralized: IC80 < 50 µg/mL (of 20 viruses) [1] | % VS Neutralized: IC80 < 1 µg/mL (of 20 viruses) [2] | % VS Neutralized: IC80 < 50 µg/mL (of 20 viruses) [2] | Geometric Mean (IC80) [2] | Total VS Neutralized: IC80 < 1 µg/mL (of 20 viruses) [2] | Total VS Neutralized: IC80 < 50 µg/mL (of 20 viruses) [2]
B1 | 65% | 90% | 0.222 µg/mL | 0.375 µg/mL | 13 viruses | 18 viruses | – | – | – | – | –
B2 | 60% | 90% | 0.287 µg/mL | 0.469 µg/mL | 12 viruses | 18 viruses | – | – | – | – | –
B3 | 45% | 55% | 0.094 µg/mL | – | 9 viruses | 11 viruses | – | – | – | – | –
B4 | – | – | – | – | – | – | 45% | 45% | 0.039 µg/mL | 9 viruses | 9 viruses
